Reference: paper PMC4788496 (Chemistry & biology, 2015)

Target: the molecule itself
Assay: SEC

B1: apoNC1 (heme-free DGCR8 construct NC1, a.a. 276-751) (domain or fragment, human, UniProt Q8WYQ5 276-751, looked up)
chain: DGETSVQPMMTKIKTVLKSRGRPPTEPLPDGWIMTFHNSGVPVYLHRESRVVTWSRPYFLGTGSIRKHDPPLSSIPCLHYKKMKDNEEREQSSDLTPSGDVSPVKPLSRSAELEFPLDEPDSMGADPGPPDEKDPLGAEAAPGALGQVKAKVEVCKDESVDLEEFRSYLEKRFDFEQVTVKKFRTWAERRQFNREMKRKQAESERPILPANQKLITLSVQDAPTKKEFVINPNGKSEVCILHEYMQRVLKVRPVYNFFECENPSEPFGASVTIDGVTYGSGTASSKKLAKNKAARATLEILIPDFVKQTSEEKPKDSEELEYFNHISIEDSRVYELTSKAGLLSPYQILHECLKRNHGMGDTSIKFEVVPGKNQKSEYVMACGKHTVRGWCKNKRVGKQLASQKILQLLHPHVKNWGSLLRMYGRESSKMVKQETSDKSVIELQQYAKKNKPNLHILSKLQEEMKRLAEEREETRK
binding result: binds
